# B1: TIMP3: Recombinant tissue inhibitor of matrix metalloproteinase-3, a soluble protein released by MSCs, obtained from Amgen Inc. (protein)
# chain: CTCSPSHPQDAFCNSDIVIRAKVVGKKLVKEGPFGTLVYTIKQMKMYRGFTKMPHVQYIHTEASESLCGLKLEVNKYQYLLTGRVYDGKMYTGLCNFVERWDQLTLSQRKGLNYRYHLGCNCKIKSCYYLPCFVTSKNECLWTDMLSNFGYPGYQSKHYACIRQKGGYCSWYRGWAPPDKSIINATDP
# Columns and labels:
# [1] = system: mouse model of controlled cortical impact (CCI); assay: Morris Water Maze in CCI TBI mice; format: in vivo
# From the text: The mouse controlled cortical impact (CCI) injury model was used as previously described. In brief, mice were anesthetized with 5% isoflurane and 1:1 O2:N2 mixture. Animals were mounted on a stereotaxic frame and were secured by ear bars and an incisor bar. Anesthesia was maintained with 2.0% isoflurane and 1:1 O2:N2 mixture. A 5-mm-diameter craniotomy was made midway between bregma and lambda on the right side, with the medial edge of the craniotomy 1 mm lateral to midline. Injury was produced using a magnetic impactor mounted at an angle of 110° from the vertical plane. A single impact at a velocity of 4+/−0.2 m/s was used inflict a moderate to severe injury (1.2-1.3 mm impact depth). After injury, the incision was closed. Sham animals underwent identical surgeries except for impact injury. Core body temperature was monitored using a rectal thermometer and maintained at 36.8° C.-37.2° C. with a heating pad throughout the procedure. For treatments, TIMP3 (60.0 μg/kg) or vehicle control (PBS) administration was performed at 2, 24, and 48 hrs after injury via tail vein injections in a total volume of 125 μl. Animal research was performed with approval of the Institutional Animal Care and Use Committee at ISIS Services LLC (San Carlos, Calif., USA). Mice received humane care according to the criteria outlined by the National Research Council's Institute of Laboratory Animal Resources in the “Guide for the Care and Use of Laboratory Animals”. Neurocognitive testing conducted at UT Houston was in compliance with University of Texas Houston Institutional Animal Care and Use Committee.
# A modified Morris water maze task was used to assess long-term memory. Mice were trained to find the location of a hidden platform in one day. This was followed by probe at 30 mins following the last trial and another probe 24 hrs later. Mice were given 10 training trials with an inter-trial interval of 15 mins. Each trial was initiated by placing the animal into the water maze at one of four randomly chosen starting positions. The animal was allowed to search for the hidden platform for a period of 1 min, and the time to find the platform recorded. […] At thirty minutes and twenty-four hours following the final training trial, animals were tested in a probe trial in which the platform was removed from the tank and allowed to search for a period of 1 min. Movement within the maze was monitored using a video camera linked to […] software (Ethovision™, Noldus Information Technology, Leesbury, Va.). Measures of memory, including latency to first platform crossing, and number of crossings were recorded.
# [2] = system: S6 Ribosomal Protein (S235/236) in primary hippocampal neurons; assay: S6 Ribosomal Protein (S235/236) phosphorylation in primary hippocampal neurons; format: cell-based, mouse; conditions: 1 μg/ml TIMP3, 15 mins
# Procedure: SH-SY5Y cells were obtained from ATCC (Cat# CRL-2266, Manassas, Va.) and were cultured in DMEM and 10% FBS up to passage 10. For differentiation of SH-SY5Y cells into a neuronal phenotype, cells were first plated in DMEEM+10% FBS for 24 hrs before exchanging media in DMEM+1% FBS 10 μM retinoic acid. Differentiation was performed for 3 days before experimentation. Hippocampal neurons were prepared according to the protocol by Beaudoin et al. (Nature Protocols 2012; 7(9):1741-1754) with minor modifications. In brief, after trypsin digestion of hippocampi isolated from P1 mouse pups single cell suspensions was created by trituration and plated onto Biocoat™ poly-D-lysine coated 12-well plates (Cat#354470, BD Biosciences, San Jose, Calif.). […]
# Pathscan Antibody™ array kits were purchased from Cell Signaling Technologies (Danvers, Mass.). PathScan® RTK signaling antibody array kit (Fluorescent Readout, Cat#7949) and PathScan™ Akt signaling antibody array kit (Fluorescent Readout, Cat#9700) were performed as per manufacturer's instructions. Imaging was performed on a LI-COR Odyssey™ infrared scanner and pixel densities measured by in house LI-COR Image™ suite software. […]
# Lysates was analyzed in conjuncture with the LI-COR Odyssey™ infra-red imaging system. […] After further wash steps images were obtained using a LI-COR™ Odyssey scanner and quantified using LI-COR™ Image Studio software. […]
# [3] = system: β3-tubulin / dendritic branches in the molecular layer of the dentate gyrus; assay: β3-tubulin western blot and staining of ipsilateral hippocampus 7 days post-TBI; format: in vivo, mouse; conditions: TIMP3 60 μg/kg IV x3; day 7 post-TBI
# From the text: The mouse controlled cortical impact (CCI) injury model was used as previously described. In brief, mice were anesthetized with 5% isoflurane and 1:1 O2:N2 mixture. Animals were mounted on a stereotaxic frame and were secured by ear bars and an incisor bar. Anesthesia was maintained with 2.0% isoflurane and 1:1 O2:N2 mixture. A 5-mm-diameter craniotomy was made midway between bregma and lambda on the right side, with the medial edge of the craniotomy 1 mm lateral to midline. Injury was produced using a magnetic impactor mounted at an angle of 110° from the vertical plane. A single impact at a velocity of 4+/−0.2 m/s was used inflict a moderate to severe injury (1.2-1.3 mm impact depth). After injury, the incision was closed. Sham animals underwent identical surgeries except for impact injury. Core body temperature was monitored using a rectal thermometer and maintained at 36.8° C.-37.2° C. with a heating pad throughout the procedure. For treatments, TIMP3 (60.0 μg/kg) or vehicle control (PBS) administration was performed at 2, 24, and 48 hrs after injury via tail vein injections in a total volume of 125 μl. Animal research was performed with approval of the Institutional Animal Care and Use Committee at ISIS Services LLC (San Carlos, Calif., USA). […]
# MMP-9 = MMP-9 (Homo sapiens, UniProt P14780); assay: SensoLyte Fluorimetric MMP-9 Activity Assay; format: biochemical; conditions: dose response; 1 μg/ml TIMP3
# From the text: SensoLyte Fluorimetric MMP-2 Activity Assay Kit™ (Cat#71151) and SensoLyte Fluorimetric MMP-9 Activity Assay Kit™ (Cat#71155) were purchased from AnaSpec (Fremont, Calif.) and performed per manufacturer's instructions.
# [4] = long-term probe, TBI+TIMP3 vs TBI alone
# MMP-9, sequence (P14780 94-707, species assumed): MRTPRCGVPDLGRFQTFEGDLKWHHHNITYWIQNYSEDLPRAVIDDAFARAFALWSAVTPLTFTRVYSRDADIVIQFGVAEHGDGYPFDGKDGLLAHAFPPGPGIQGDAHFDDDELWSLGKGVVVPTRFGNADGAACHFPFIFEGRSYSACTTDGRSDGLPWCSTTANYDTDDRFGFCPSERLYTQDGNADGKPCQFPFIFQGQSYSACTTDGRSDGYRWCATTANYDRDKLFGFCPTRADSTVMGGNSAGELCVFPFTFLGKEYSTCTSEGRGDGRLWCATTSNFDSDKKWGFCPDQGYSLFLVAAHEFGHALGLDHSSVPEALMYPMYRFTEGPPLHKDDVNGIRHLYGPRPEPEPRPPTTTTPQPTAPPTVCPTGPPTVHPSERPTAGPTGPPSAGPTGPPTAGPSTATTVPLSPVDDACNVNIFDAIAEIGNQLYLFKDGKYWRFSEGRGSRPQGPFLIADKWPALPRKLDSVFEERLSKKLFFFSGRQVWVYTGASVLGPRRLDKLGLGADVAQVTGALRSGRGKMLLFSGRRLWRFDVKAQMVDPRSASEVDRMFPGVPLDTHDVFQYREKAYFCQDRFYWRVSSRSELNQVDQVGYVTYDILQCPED
molecule,measurement,setting,value
B1,ability to learn the platform location during training,[1]; TBI+TIMP3 vs TBI alone,did not significantly differ
same,total number of correct platform crossings (Morris Water Maze),"[1]; TIMP3 60 μg/kg IV x3, long-term memory probe 24 hrs after training, days 8-9",1.9±0.4
same,latency to first platform crossing,[1]; [4],did not significantly differ
same,time in the area around the platform (concentric rings),[1]; [4],spent more time in the area around the platform
same,"S6 Ribosomal Protein (S235/236) activation, western blot",[2],activates S6 Ribosomal Protein (S^235/236)
same,"S6 Ribosomal Protein (S235/236) phosphorylation, antibody array",[2],phosphorylates mTORC1 pathway target S6 Ribosomal Protein (S^235/236)
same,number of β3-tubulin+ve dendritic branches >50 μm in the molecular layer,[3],attenuated by TIMP3 treatment
same,"β3-tubulin protein in ipsilateral hippocampus, western blot",[3],attenuated by TIMP3 treatment
same,MMP-9 inhibition (Sensolyte FRET assay),MMP-9,can fully inhibit
